According to patent publication US20230241168A1 (ALPINE IMMUNE SCIENCES, published 2023):

Key:
Experiment in all cases: cell-based or functional assay
[1] = molecular target: recombinant human BAFF (human, UniProt Q9Y275 134-285)
[2] = molecular target: T1, recombinant human APRIL (human, UniProt O75888 105-250, limits assumed)
T1 sequence (looked up): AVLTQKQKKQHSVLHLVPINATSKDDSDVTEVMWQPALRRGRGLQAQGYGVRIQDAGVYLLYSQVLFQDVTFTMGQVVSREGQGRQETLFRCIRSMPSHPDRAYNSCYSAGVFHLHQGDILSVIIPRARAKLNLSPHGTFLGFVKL

[3] = molecular target: T2, human CD86 (human, UniProt P42081 24-329)
T2 sequence (looked up): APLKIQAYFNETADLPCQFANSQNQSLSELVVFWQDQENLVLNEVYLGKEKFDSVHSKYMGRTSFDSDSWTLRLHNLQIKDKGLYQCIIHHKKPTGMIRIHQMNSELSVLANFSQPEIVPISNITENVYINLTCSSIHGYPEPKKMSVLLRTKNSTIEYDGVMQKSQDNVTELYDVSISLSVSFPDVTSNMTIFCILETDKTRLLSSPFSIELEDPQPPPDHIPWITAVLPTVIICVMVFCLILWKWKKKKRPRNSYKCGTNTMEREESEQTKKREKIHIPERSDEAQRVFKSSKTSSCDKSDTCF

[4] = molecular target: T3, human CD80 (human, UniProt P33681 35-288)
T3 sequence (looked up): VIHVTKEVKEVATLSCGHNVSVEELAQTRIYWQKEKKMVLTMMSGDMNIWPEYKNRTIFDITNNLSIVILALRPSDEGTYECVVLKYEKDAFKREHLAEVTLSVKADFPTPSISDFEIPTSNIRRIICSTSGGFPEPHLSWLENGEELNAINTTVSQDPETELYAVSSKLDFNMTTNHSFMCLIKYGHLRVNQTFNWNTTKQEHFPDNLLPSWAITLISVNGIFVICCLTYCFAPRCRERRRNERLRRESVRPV

B1: BCMA 357 GSG4S Fc (G4S)3 CTLA-4 92 (Fc fusion)
chain: LQMAGQCSQNEYFDSLLYACIPCQLRCSSNTPPLTCQRYCNASVTNSVKGTNAGSGGGGSEPKSSDKTHTCPPCPAPEAEGAPSVFLFPPKPKDTLMISRTPEVTCVVVDVSHEDPEVKFNWYVDGVEVHNAKTKPREEQYNSTYRVVSVLTVLHQDWLNGKEYKCKVSNKALPAPIEKTISKAKGQPREPQVYTLPPSRDELTKNQVSLTCLVKGFYPSDIAVEWESNGQPENNYKTTPPVLDSDGSFFLYSKLTVDKSRWQQGNVFSCSVMHEALHNHYTQKSLSLSPGGGGGSGGGGSGGGGSGGGGSKAMHVAQPAVVLASSRGIASFVCEYASPWKATEVRVTVLRQADSQVTEVCAATYMMGSELTFPDDSICTGTSSGNQVNLTIRGLRAMDTGLYICKVEQMYPPPYLLGIGNGTQIYVIDPEPCPDSD
- IC50 (nM) BAFF [1]: 0.415 nM
- IC50 BAFF (Δ Parental vTD) [1]: 0.4 ratio
- IC50 (nM) APRIL [2]: 0.582 nM
- IC50 APRIL (Δ Parental vTD) [2]: 0.6 ratio

B2: CTLA-4 92 GSG4S Fc (G4S)2 BCMA 357 (Fc fusion)
chain: KAMHVAQPAVVLASSRGIASFVCEYASPWKATEVRVTVLRQADSQVTEVCAATYMMGSELTFPDDSICTGTSSGNQVNLTIRGLRAMDTGLYICKVEQMYPPPYLLGIGNGTQIYVIDPEPCPDSDGSGGGGSEPKSSDKTHTCPPCPAPEAEGAPSVFLFPPKPKDTLMISRTPEVTCVVVDVSHEDPEVKFNWYVDGVEVHNAKTKPREEQYNSTYRVVSVLTVLHQDWLNGKEYKCKVSNKALPAPIEKTISKAKGQPREPQVYTLPPSRDELTKNQVSLTCLVKGFYPSDIAVEWESNGQPENNYKTTPPVLDSDGSFFLYSKLTVDKSRWQQGNVFSCSVMHEALHNHYTQKSLSLSPGGGGGSGGGGSLQMAGQCSQNEYFDSLLYACIPCQLRCSSNTPPLTCQRYCNASVTNSVKGTNA
- IC50 (nM) BAFF [1]: 6.27 nM
- IC50 BAFF (Δ Parental vTD) [1]: 1.2 ratio
- IC50 (nM) APRIL [2]: 0.683 nM
- IC50 APRIL (Δ Parental vTD) [2]: 1 ratio
- CD86 IC50 [3]: 16.1 nM
- CD80 IC50 [4]: 22.7 nM

B3: CTLA-4 92 GSG4S Fc (G4S)3 BCMA 357 (Fc fusion)
chain: KAMHVAQPAVVLASSRGIASFVCEYASPWKATEVRVTVLRQADSQVTEVCAATYMMGSELTFPDDSICTGTSSGNQVNLTIRGLRAMDTGLYICKVEQMYPPPYLLGIGNGTQIYVIDPEPCPDSDGSGGGGSEPKSSDKTHTCPPCPAPEAEGAPSVFLFPPKPKDTLMISRTPEVTCVVVDVSHEDPEVKFNWYVDGVEVHNAKTKPREEQYNSTYRVVSVLTVLHQDWLNGKEYKCKVSNKALPAPIEKTISKAKGQPREPQVYTLPPSRDELTKNQVSLTCLVKGFYPSDIAVEWESNGQPENNYKTTPPVLDSDGSFFLYSKLTVDKSRWQQGNVFSCSVMHEALHNHYTQKSLSLSPGGGGGSGGGGSGGGGSLQMAGQCSQNEYFDSLLYACIPCQLRCSSNTPPLTCQRYCNASVTNSVKGTNA
- IC50 (nM) BAFF [1]: 0.548 nM
- IC50 BAFF (Δ Parental vTD) [1]: 0.6 ratio
- IC50 (nM) APRIL [2]: 0.55 nM
- IC50 APRIL (Δ Parental vTD) [2]: 0.5 ratio

B4: CTLA-4 92 (G4S)4 BCMA 357 GSG4S Fc (Fc fusion)
chain: KAMHVAQPAVVLASSRGIASFVCEYASPWKATEVRVTVLRQADSQVTEVCAATYMMGSELTFPDDSICTGTSSGNQVNLTIRGLRAMDTGLYICKVEQMYPPPYLLGIGNGTQIYVIDPEPCPDSDGGGGSGGGGSGGGGSGGGGSLQMAGQCSQNEYFDSLLYACIPCQLRCSSNTPPLTCQRYCNASVTNSVKGTNAGSGGGGSEPKSSDKTHTCPPCPAPEAEGAPSVFLFPPKPKDTLMISRTPEVTCVVVDVSHEDPEVKFNWYVDGVEVHNAKTKPREEQYNSTYRVVSVLTVLHQDWLNGKEYKCKVSNKALPAPIEKTISKAKGQPREPQVYTLPPSRDELTKNQVSLTCLVKGFYPSDIAVEWESNGQPENNYKTTPPVLDSDGSFFLYSKLTVDKSRWQQGNVFSCSVMHEALHNHYTQKSLSLSPG
- IC50 (nM) BAFF [1]: 3.75 nM
- IC50 BAFF (Δ Parental vTD) [1]: 3.8 ratio
- IC50 (nM) APRIL [2]: 0.63 nM
- IC50 APRIL (Δ Parental vTD) [2]: 0.6 ratio

B5: CTLA-4 92 GSG4S Fc (G4S)5 BCMA 357 (Fc fusion)
chain: KAMHVAQPAVVLASSRGIASFVCEYASPWKATEVRVTVLRQADSQVTEVCAATYMMGSELTFPDDSICTGTSSGNQVNLTIRGLRAMDTGLYICKVEQMYPPPYLLGIGNGTQIYVIDPEPCPDSDGSGGGGSEPKSSDKTHTCPPCPAPEAEGAPSVFLFPPKPKDTLMISRTPEVTCVVVDVSHEDPEVKFNWYVDGVEVHNAKTKPREEQYNSTYRVVSVLTVLHQDWLNGKEYKCKVSNKALPAPIEKTISKAKGQPREPQVYTLPPSRDELTKNQVSLTCLVKGFYPSDIAVEWESNGQPENNYKTTPPVLDSDGSFFLYSKLTVDKSRWQQGNVFSCSVMHEALHNHYTQKSLSLSPGGGGGSGGGGSGGGGSGGGGSGGGGSLQMAGQCSQNEYFDSLLYACIPCQLRCSSNTPPLTCQRYCNASVTNSVKGTNA
- IC50 (nM) BAFF [1]: 0.765 nM
- IC50 BAFF (Δ Parental vTD) [1]: 0.8 ratio
- IC50 (nM) APRIL [2]: 0.687 nM
- IC50 APRIL (Δ Parental vTD) [2]: 0.7 ratio

B6: BCMA 357 (G4S)3 CTLA-4 92 GSG4S Fc (Fc fusion)
chain: LQMAGQCSQNEYFDSLLYACIPCQLRCSSNTPPLTCQRYCNASVTNSVKGTNAGGGGSGGGGSGGGGSGGGGSKAMHVAQPAVVLASSRGIASFVCEYASPWKATEVRVTVLRQADSQVTEVCAATYMMGSELTFPDDSICTGTSSGNQVNLTIRGLRAMDTGLYICKVEQMYPPPYLLGIGNGTQIYVIDPEPCPDSDGSGGGGSEPKSSDKTHTCPPCPAPEAEGAPSVFLFPPKPKDTLMISRTPEVTCVVVDVSHEDPEVKFNWYVDGVEVHNAKTKPREEQYNSTYRVVSVLTVLHQDWLNGKEYKCKVSNKALPAPIEKTISKAKGQPREPQVYTLPPSRDELTKNQVSLTCLVKGFYPSDIAVEWESNGQPENNYKTTPPVLDSDGSFFLYSKLTVDKSRWQQGNVFSCSVMHEALHNHYTQKSLSLSPG
- IC50 (nM) BAFF [1]: 0.396 nM
- IC50 BAFF (Δ Parental vTD) [1]: 0.4 ratio
- IC50 (nM) APRIL [2]: 0.689 nM
- IC50 APRIL (Δ Parental vTD) [2]: 0.7 ratio

B7: CTLA-4 186GSG4S-Fc-(G4S)4-BCMA 381 (Fc fusion)
chain: KAMHVAQPAVVLASSRGIASFVCEYASPWKATEVRVTVLRQADSQVTEVCAATYMMGNELTFLDDSICTGTSSGNQVNLTIQGLRAMDTGLYICKVEQMYPPPYLLGIGNGTQIYVIDPEPCPDSDGSGGGGSEPKSSDKTHTCPPCPAPEAEGAPSVFLFPPKPKDTLMISRTPEVTCVVVDVSHEDPEVKFNWYVDGVEVHNAKTKPREEQYNSTYRVVSVLTVLHQDWLNGKEYKCKVSNKALPAPIEKTISKAKGQPREPQVYTLPPSRDELTKNQVSLTCLVKGFYPSDIAVEWESNGQPENNYKTTPPVLDSDGSFFLYSKLTVDKSRWQQGNVFSCSVMHEALHNHYTQKSLSLSPGGGGGSGGGGSGGGGSGGGGSLQMAGQCSQNEYFDALLYACIPCQLRCSSNTPPLTCQQYCNASVTNSVKGTNA
- IC50 (nM) BAFF [1]: 0.282 nM
- IC50 (nM) APRIL [2]: 1.27 nM
- CD86 IC50 [3]: 11.9 nM
- CD86 IC50 (Δ Parental CTLA-4) [3]: 1.5 ratio
- CD80 IC50 [4]: 26.1 nM
- CD80 IC50 (Δ Parental CTLA-4) [4]: 0.8 ratio

B8: CTLA-4 186GSG4S-Fc-(G4S)4-BCMA 411 (Fc fusion)
chain: KAMHVAQPAVVLASSRGIASFVCEYASPWKATEVRVTVLRQADSQVTEVCAATYMMGNELTFLDDSICTGTSSGNQVNLTIQGLRAMDTGLYICKVEQMYPPPYLLGIGNGTQIYVIDPEPCPDSDGSGGGGSEPKSSDKTHTCPPCPAPEAEGAPSVFLFPPKPKDTLMISRTPEVTCVVVDVSHEDPEVKFNWYVDGVEVHNAKTKPREEQYNSTYRVVSVLTVLHQDWLNGKEYKCKVSNKALPAPIEKTISKAKGQPREPQVYTLPPSRDELTKNQVSLTCLVKGFYPSDIAVEWESNGQPENNYKTTPPVLDSDGSFFLYSKLTVDKSRWQQGNVFSCSVMHEALHNHYTQKSLSLSPGGGGGSGGGGSGGGGSGGGGSLQMAGQCSQNEYFDSLLRACIPCQLRCSSNTPPLTCQRYCNASVTNSVKGTNA
- IC50 (nM) BAFF [1]: 0.133 nM
- IC50 (nM) APRIL [2]: 2.37 nM
- CD86 IC50 [3]: 9 nM
- CD86 IC50 (Δ Parental CTLA-4) [3]: 1.1 ratio
- CD80 IC50 [4]: 32.7 nM
- CD80 IC50 (Δ Parental CTLA-4) [4]: 1 ratio
